Measurements from PMC4291483 (The EMBO Journal, 2014).

Biological target: T1, purified STIL[N] (aa1-1018) (human, UniProt Q15468 1-1018)
T1 sequence (looked up): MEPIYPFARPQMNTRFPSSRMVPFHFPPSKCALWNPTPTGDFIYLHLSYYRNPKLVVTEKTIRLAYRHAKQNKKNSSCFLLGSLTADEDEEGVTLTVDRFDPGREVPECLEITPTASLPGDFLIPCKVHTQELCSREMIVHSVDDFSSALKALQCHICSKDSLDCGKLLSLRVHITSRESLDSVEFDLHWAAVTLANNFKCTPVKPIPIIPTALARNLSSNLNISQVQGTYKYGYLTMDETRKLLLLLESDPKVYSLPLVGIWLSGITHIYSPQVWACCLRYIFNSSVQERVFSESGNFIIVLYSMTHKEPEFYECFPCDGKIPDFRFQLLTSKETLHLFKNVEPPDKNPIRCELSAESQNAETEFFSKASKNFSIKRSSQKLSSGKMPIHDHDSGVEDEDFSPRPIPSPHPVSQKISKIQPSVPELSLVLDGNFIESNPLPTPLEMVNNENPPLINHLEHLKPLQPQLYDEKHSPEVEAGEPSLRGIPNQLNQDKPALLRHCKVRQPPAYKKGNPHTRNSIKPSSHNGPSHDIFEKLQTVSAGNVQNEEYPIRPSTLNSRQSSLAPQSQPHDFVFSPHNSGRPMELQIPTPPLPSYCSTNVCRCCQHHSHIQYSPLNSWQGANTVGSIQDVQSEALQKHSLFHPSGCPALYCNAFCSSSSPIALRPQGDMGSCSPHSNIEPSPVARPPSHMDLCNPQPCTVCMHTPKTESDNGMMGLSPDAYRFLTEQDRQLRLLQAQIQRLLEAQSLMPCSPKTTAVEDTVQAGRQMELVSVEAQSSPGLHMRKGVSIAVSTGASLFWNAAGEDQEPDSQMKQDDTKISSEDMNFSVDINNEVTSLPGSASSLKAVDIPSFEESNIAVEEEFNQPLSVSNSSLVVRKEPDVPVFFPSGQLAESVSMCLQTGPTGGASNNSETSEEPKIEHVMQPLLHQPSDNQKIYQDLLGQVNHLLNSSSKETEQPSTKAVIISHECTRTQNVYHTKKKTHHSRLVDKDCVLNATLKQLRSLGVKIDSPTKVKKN
Assay: pull-down; GST-RBM14 fragments retained on Glutathione sepharose beads, incubated with ~5 μg bacterially purified STIL[N] for 2 h at 4°C in lysis buffer; SDS-PAGE, SimplyBlue Safe stain
Conditions: both partners purified

binding result: binds
B1: GST-RBM14[C] (domain or fragment, human, UniProt Q96PK6 151-669, looked up)
chain: QKKGPGLAVQSGDKTKKPGAGDTAFPGTGGFSATFDYQQAFGNSTGGFDGQARQPTPPFFGRDRSPLRRSPPRASYVAPLTAQPATYRAQPSVSLGAAYRAQPSASLGVGYRTQPMTAQAASYRAQPSVSLGAPYRGQLASPSSQSAAASSLGPYGGAQPSASALSSYGGQAAAASSLNSYGAQGSSLASYGNQPSSYGAQAASSYGVRAAASSYNTQGAASSLGSYGAQAASYGAQSAASSLAYGAQAASYNAQPSASYNAQSAPYAAQQAASYSSQPAAYVAQPATAAAYASQPAAYAAQATTPMAGSYGAQPVVQTQLNSYGAQASMGLSGSYGAQSAAAATGSYGAAAAYGAQPSATLAAPYRTQSSASLAASYAAQQHPQAAASYRGQPGNAYDGAGQPSAAYLSMSQGAVANANSTPPPYERTRLSPPRASYDDPYKKAVAMSKRYGSDRRLAELSDYRRLSESQLSFRRSPTKSSLDYRRLPDAHSDYARYSGSYNDYLRAAQMHSGYQRRM
